T1: human glucose-dependent insulinotropic polypeptide (GIP) receptor (human) (UniProt P48546)
T1 sequence (looked up): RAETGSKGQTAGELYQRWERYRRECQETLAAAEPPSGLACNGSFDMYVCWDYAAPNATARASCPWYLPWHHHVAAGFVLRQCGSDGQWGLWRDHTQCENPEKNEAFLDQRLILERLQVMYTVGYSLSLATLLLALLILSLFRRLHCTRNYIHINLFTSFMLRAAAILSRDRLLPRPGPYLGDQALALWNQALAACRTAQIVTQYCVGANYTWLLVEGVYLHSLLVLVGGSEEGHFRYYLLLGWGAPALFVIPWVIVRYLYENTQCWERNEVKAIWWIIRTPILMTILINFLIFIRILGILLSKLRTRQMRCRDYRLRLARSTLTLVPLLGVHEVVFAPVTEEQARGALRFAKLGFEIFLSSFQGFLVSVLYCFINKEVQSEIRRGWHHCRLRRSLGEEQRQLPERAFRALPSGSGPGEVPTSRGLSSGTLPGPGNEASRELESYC

T2: human GIP receptor (human, UniProt P48546 22-466)
T2 sequence (looked up): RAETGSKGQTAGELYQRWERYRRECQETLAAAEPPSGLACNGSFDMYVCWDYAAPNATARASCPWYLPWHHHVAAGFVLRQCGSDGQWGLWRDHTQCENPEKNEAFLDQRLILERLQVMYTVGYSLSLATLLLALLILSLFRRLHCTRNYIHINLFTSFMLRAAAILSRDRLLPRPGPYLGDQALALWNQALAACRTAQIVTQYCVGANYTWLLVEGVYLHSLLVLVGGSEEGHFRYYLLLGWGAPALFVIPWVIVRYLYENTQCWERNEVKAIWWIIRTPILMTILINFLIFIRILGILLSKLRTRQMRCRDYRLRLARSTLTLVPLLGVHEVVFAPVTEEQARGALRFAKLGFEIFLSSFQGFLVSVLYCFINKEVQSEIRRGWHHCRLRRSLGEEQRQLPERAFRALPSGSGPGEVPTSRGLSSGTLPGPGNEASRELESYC


How the values were obtained:
Test in all cases: cell-based or functional assay
[1] = target: T1, human glucose-dependent insulinotropic polypeptide (GIP) receptor (human)
[2] = target: human glucagon receptor (human) (UniProt P47871)
[3] = target: human glucagon-like peptide-1 (GLP-1) receptor (human) (UniProt P43220)
[4] = target: T2, human GIP receptor
[5] = target: human GLP-1 receptor (human, UniProt P43220 24-463)
[6] = target: human glucagon receptor (human, UniProt P47871 26-477)

Row | Binder | cAMP EC50 [1] [nM] | cAMP Emax [1] [%] | cAMP EC50 [2] [nM] | cAMP EC50 [3] [nM] | cAMP Emax [3] [%] | cAMP EC50 (1.0% HSA) [4] [nM] | cAMP EC50 (1.0% HSA) [5] [nM] | cAMP Emax (1.0% HSA) [5] [%] | cAMP EC50 (1.0% HSA) [6] [nM] | cAMP Emax (1.0% HSA) [4] [%]
1 | YXEGTXTSDYXIXLDXKAQXEFIXXLIEGGPSSGAPPPSK (Y-Aib-EGT-αMeF(2F)-TSDY-Aib-I-αMeL-LD-Orn-K((2-[2-(2-Amino-ethoxy)-ethoxy]-acetyl)2-(γ-Glu)-CO-(CH2)12-CO2H)AQ-Aib-EFI-(D-Glu)-αMeY-LIEGGPSSGAPPPSK((2-[2-(2-Amino-ethoxy)-ethoxyl-acetyl)2-(γ-Glu)-CO-(CH2)12-CO2H)-NH2) [Example 232] | 0.0192 | 101 | > 9950 | 0.565 | 103 | 1.86 | 33.6 | 95.4 | > 9950 | –
2 | YXEGTXTSDYXIXLDXIAQXKFIXXLIEGGPSSGAPPPSK (Y-Aib-EGT-aMeF(2F)-TSDY-Aib-I-aMeL-LD-Orn-IAQ-Aib-K((2-[2-(2-Amino-ethoxy)-ethoxy]-acetyl)2-(γ-Glu)-CO-(CH2)12-CO2H)FI-(D-Glu)-αMeY-LIEGGPSSGAPPPSK((2-[2-(2-Amino-ethoxy)-ethoxy]-acetyl)2-(γ-Glu)-CO-(CH2)12-CO2H)-NH2) [Example 235] | 0.0168 | 99.3 | > 9950 | 0.295 | 104 | 10.1 | 598 | 152 | > 9950 | 92.2
3 | YXEGTXTSDXSIXLDXIAQXEFIXXLIKGGPSSGAPPPSK (Y-Aib-EGT-αMeF(2F)-TSD-4Pal-SI-αMeL-LD-Orn-IAQ-Aib-EFI-(D-Glu)-αMeY-LIK((2-[2-(2-Amino-ethoxy)-ethoxy]-acetyl)3-(γ-Glu)-CO-(CH2)12-CO2H)GGPSSGAPPPSK((2-[2-(2-Amino-ethoxy)-ethoxy]-acetyl)3-(γ-Glu)-CO-(CH2)12-CO2H)-NH2) [Example 229] | 0.0253 | 103 | > 9950 | 2.25 | 94.3 | 7.35 | 135 | 99 | > 9950 | 80.5

— patent publication US20230265151A1, “GIP/GLP1 CO-AGONIST COMPOUNDS” (priority 2020, published 2023)
